Data reported in paper PMC12224427, “The non-metabolic function of 6PGD coordinates CCNA2 and HMGA2 expression to drive colorectal cancer progression and drug response” (Journal of Experimental & Clinical Cancer Research : CR, 2025).

Biological target: T1, recombinant 6PGD (re6PGD) (UniProt P52209 1-483)
T1 construct: 6-phosphogluconate dehydrogenase (6PGD), wild type; source: bacterially expressed recombinant
T1 sequence (looked up): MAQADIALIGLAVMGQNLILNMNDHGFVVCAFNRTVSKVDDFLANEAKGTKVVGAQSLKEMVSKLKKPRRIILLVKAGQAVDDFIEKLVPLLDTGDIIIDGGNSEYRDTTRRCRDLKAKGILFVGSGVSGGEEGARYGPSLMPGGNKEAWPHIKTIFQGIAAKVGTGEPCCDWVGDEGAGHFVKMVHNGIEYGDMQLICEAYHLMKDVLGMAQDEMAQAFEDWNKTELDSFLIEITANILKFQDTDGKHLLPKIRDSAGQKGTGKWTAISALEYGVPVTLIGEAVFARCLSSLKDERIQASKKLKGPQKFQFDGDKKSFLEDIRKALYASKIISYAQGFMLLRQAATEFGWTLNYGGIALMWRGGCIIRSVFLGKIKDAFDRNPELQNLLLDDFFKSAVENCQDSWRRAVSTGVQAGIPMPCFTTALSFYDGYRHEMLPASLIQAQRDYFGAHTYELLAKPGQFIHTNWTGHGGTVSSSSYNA
Assay: MST; microscale thermophoresis of 6PGD and ALKBH5 (Fig. S5A); conditions not shown
Settings: both partners purified

B1: recombinant ALKBH5 (reALKBH5; aa:66–292) (domain or fragment, UniProt Q6P6C2 66-292, looked up)
chain: PERSDYEEQQLQKEEEARKVKSGIRQMRLFSQDECAKIEARIDEVVSRAEKGLYNEHTVDRAPLRNKYFFGEGYTYGAQLQKRGPGQERLYPPGDVDEIPEWVHQLVIQKLVEHRVIPEGFVNSAVINDYQPGGCIVSHVDPIHIFERPIVSVSFFSDSALCFGCKFQFKPIRVSEPVLSLPVRRGSVTVLSGYAADEITHCIRPQDIKERRAVIILRKTRLDAPRL
notes: ALKBH5, residues 66-292; The range 66-292 is printed where the in vitro methylation assay is told; source: recombinant
B1 was tested, and the Kd was 1630 nM.
